Substitutions are numbered along the chain they refer to.
B1: HLA-G-0039 (antibody, V domains shown)
VH: EVQLLESGGGLVQPGGSLRLSCAASGFTFSSYAMNWVRQAPGKGLEWVSVISGSGVSTYYADSVKGRFTISRDNSRNTLSLQMNSLRAEDTAVYYCAKDGSYNYGYGDYFDYWGQGTLVTVSS
VL: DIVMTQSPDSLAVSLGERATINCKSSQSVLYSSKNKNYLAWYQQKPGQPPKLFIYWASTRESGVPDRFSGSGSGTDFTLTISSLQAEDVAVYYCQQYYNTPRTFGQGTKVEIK
notes: Human antibody from humanized OmniRat (OMT) rats
B2: HLA-G-0041 (antibody, V domains shown)
VH: B1 VH with S31T, A33G, N35S, S54G, R76K, S80Y, S85R
VL: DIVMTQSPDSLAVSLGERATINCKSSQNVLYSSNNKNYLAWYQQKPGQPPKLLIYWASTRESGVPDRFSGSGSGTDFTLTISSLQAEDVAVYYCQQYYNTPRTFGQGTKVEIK
notes: as for B1
B3: HLA-G-0031 (antibody, V domains shown)
VH: QVKLMQSGAALVKPGTSVKMSCNASGYTFTDYWVSWVKQSHGKRLEWVGEISPNSGASNFDENFKDKATLTVDKSTSTAYMELSRLTSEDSAIYYCTRSSHGSFRWFAYWGQGTLVTVSS
VL: AIVLNQSPSSIVASQGEKVTITCRASSSVSSNHLHWYQQKPGAFPKFVIYSTSQRASGIPSRFSGSGSGTSYSFTISRVEAEDVATYYCQQGSSNPYTFGAGTKLELK
notes: Rat monoclonal antibody obtained from CD rats
B4: HLA-G-0090 (antibody, V domains shown)
VH: QVQLQQSGPGLLKPSQTLSLTCAISGDSVSSNRAAWNWIRQSPSRGLEWLGRTYYRSKWYNDYAVSVQGRITLIPDTSKNQFSLRLNSVTPEDTAVYYCASVRAVAPFDYWGQGVLVTVSS
VL: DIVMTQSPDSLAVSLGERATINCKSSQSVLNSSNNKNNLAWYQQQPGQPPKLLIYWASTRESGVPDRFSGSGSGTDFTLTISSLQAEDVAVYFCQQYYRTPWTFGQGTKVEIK
notes: as for B1

target: T1, recombinant soluble human HLA-G β2M MHC class I complex, monomer (human); experiment: ELISA, biotinylated wt HLA-G monomer on streptavidin plate
T1 construct: His tagged; biotinylated where coated on streptavidin plates, non-biotinylated in SPR; also called HLA-G-0003; wt HLA-G (monomer)
Method: (§1) Streptavidin coated plates (Nunc, MicroCoat #11974998001) were coated with 25 μl/well biotinylated human wt HLA-G at a concentration of 250 ng/ml and incubated at 4° C. overnight. After washing (3×90 μl/well with PBST-buffer) 25 μl anti-HLA-G samples (1:3 dilution in OSEP buffer) or reference antibody (G233, Thermo/Pierce #MA1-19449, 500 ng/ml) were added and incubated 1 h at RT. After washing (3×90 μl/well with PBST-buffer) 25 μl/well goat-anti-mouse H+L-POD (Biorad #170-6561, 1:2000 in OSEP) or donkey-anti-rabbit IgG POD (GE #NA9340V, 1:5000 in OSE) was added and incubated at RT for 1 h on shaker. For detection of rat IgGs a mixture of goat-anti-rat IgG1-POD (Bethyl #A110-106P), goat-anti-rat IgG2a-POD (Bethyl #A110-109P) and goat-anti-rat IgG2b-POD (Bethyl #A110-111P) 1:10000 in OSEP was added and incubated at RT for 1 h on shaker. After washing (6×90 μl/well with PBST-buffer) 25 μl/well TMB substrate (Roche, 11835033001) was added and incubated until OD 2-3. Measurement took place on a Tecan Safire 2 instrument at 370/492 nm.
(§2) The above table summarizes the binding of different rat anti-human HLA-G monoclonal antibodies, derived from wt protein IMS. Shown are the relative EC50 values [ng/ml] of the respective binding to rec. wt monomeric, dimeric and trimeric HLA-G proteins as assessed by ELISA. The ELISA was set up by coating the biotinylated wt HLA-G antigen to strepdavidin plates. After incubation and washing steps, the respective antibodies were bound in a concentration range from 10-0 μg in 1:2 dilution steps. Detection of bound antibodies was carried out by anti-Fc-antibody-POD conjugates. EC50 values were determined from the resulting binding curves at the antibody concentrations generating the half-maximal signal. In case of the non-biotinylated HLA-G dimer and trimer antigens, immobilization was carried out by random coating on assay plates.

| Binder | EC50 [nM] |
| --- | --- |
| B1 | 7.35 |
| B2 | 4.95 |
| B3 | 7.19 |

target: T1, recombinant soluble human HLA-G β2M MHC …; experiment: ELISA (EC50 rel), biotinylated wt HLA-G monomer on streptavidin plate
Method: as §1
The above table summarizes the binding of different rat anti-human HLA-G monoclonal antibodies, derived from wt protein IMS both of wt as well as OMT rats. Shown are the relative EC50 values [ng/ml] and maximal OD of the respective binding to rec. wt monomeric HLA-G protein or the socalled gegrafted HLA-G (HLA-A consensus sequence on HLA-G backbone) protein as assessed by ELISA. The ELISA was set up by coating the biotinylated wt HLA-G or consensus antigen to strepdavidin plates. After incubation and washing steps, the respective antibodies were bound in a concentration range from 10-0 μg in 1:2 dilution steps. Detection of bound antibodies was carried out by anti-Fc-antibody-POD conjugates. EC50 values were determined from the resulting binding curves at the antibody concentrations generating the half-maximal signal.

| Binder | EC50 [ng/mL] |
| --- | --- |
| B4 | 10.4 |
| B1 | 7.35 |
| B2 | 8.6 |
| B3 | 7.19 |

target: T2, recombinant soluble human HLA-G β2M MHC class I complex, trimer (human); experiment: competition ELISA, one antibody concentration; competitor coated ILT4-Fc
T2 construct: Non-biotinylated; also called HLA-G Trimer; trimeric HLA-G
Method: (§3) The ELISA was set up by coating the Fc tagged ILT2 and ILT4 respectively to Maxisorp microtiter plates. After incubation and washing steps, the respective antibodies were added at a concentration of 100 nM. Soluble His tagged monomeric, dimeric or trimeric HLA-G was added to the wells. After incubation and washing steps, detection of bound receptor was carried out by anti-His-antibody-POD conjugates.
(§4) The above tables summarize the blocking of interaction between rec. HLA-G proteins (monomer and oligomers) to its receptors ILT2 and ILT4 by the described HLAG antibodies at a concentration of 110 nM (*HLAG-0090 was tested at a concentration of 44 nM) as assessed by ELISA. Shown are the % inhibitions of the HLA-G/receptor interaction (for ILT2 and ILT4). The less pronounced ILT4 inhibition depends on the major β2M dependent interaction of this receptor.

| Binder | % inhibition of ILT4 binding [%] |
| --- | --- |
| B1 | -43 |
| B2 | -39 |
| B3 | 68 |

target: T1, recombinant soluble human HLA-G β2M MHC …; experiment: as above
Method: as §3, §4

| Binder | % inhibition of ILT4 binding [%] |
| --- | --- |
| B1 | -224 |
| B2 | -184 |
| B3 | 17 |

target: T3, recombinant soluble human HLA-G β2M MHC class I complex, dimer (human); experiment: as above
T3 construct: Non-biotinylated; also called HLA-G Dimer; dimeric HLA-G
Method: as §3, §4

| Binder | % inhibition of ILT4 binding [%] |
| --- | --- |
| B1 | -105 |
| B2 | -113 |
| B3 | 54 |

target: T1, recombinant soluble human HLA-G β2M MHC …; experiment: blocking ELISA on biotinylated wt HLA-G; competitor c-myc ILT-2
Method: Streptavidin coated plates (Nunc, MicroCoat #11974998001) were coated with 25 µl/well biotinylated human wt HLA-G at a concentration of 500-1000 ng/ml and incubated at 4° C. overnight. After washing (3×90 μl/well with PBST-buffer) 25 μl anti-HLA-G samples were added in decreasing concentrations starting at 10 or 3 μg/ml, then diluted in 1:3 or 1:2 steps and incubated 1 h at RT. After washing (3×90 μl/well with PBST-buffer) 25 μl/well c-myc-tagged recombinant ILT-2 receptor was added at a concentration of 200 ng/ml and incubated for 1 h at room temperature. […] After washing (3×90 μl/well with PBST-buffer), 25 μl/well TMB substrate (Roche, 11835033001) was added and incubated until OD 2-3. Measurement took place on a Tecan Safire 2 instrument at 370/492 nm
The table above summarizes the extent of ILT-2 and ILT-4 blocking of different antibodies bound to HLA-G at a concentration of 3 μg/ml, relative to an HLA-G:receptor interaction that is not blocked. HLA-G-0090 was tested in a separate experiment for ILT2 blockade, ILT4 blocking was not assessed

| Binder | % inh. ILT2 (3 µg/ml antibody) [%] |
| --- | --- |
| B1 | 14 |
| B2 | 17.4 |
| B3 | 72.8 |

target: T3, recombinant soluble human HLA-G β2M MHC …; experiment: ELISA, HLA-G dimer coated at random on plate
Method: as §2

| Binder | EC50 [nM] |
| --- | --- |
| B1 | 4.1 |
| B2 | 5.31 |
| B3 | 1.87 |

Reference: patent US20250051455A1 (Hoffmann-La Roche, published 2025)
